This data set deals with T1, RNase P protein (SPP, SP protein) (Staphylococcus aureus) (UniProt A8YYS2).
T1 sequence: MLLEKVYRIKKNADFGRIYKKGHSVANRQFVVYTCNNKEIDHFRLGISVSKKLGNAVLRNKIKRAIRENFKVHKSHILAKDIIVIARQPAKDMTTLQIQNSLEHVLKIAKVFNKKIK
As to the kind of experiment: filter.

For orientation: Kd means the free concentration of one partner at which half of the binding sites on the other are occupied at equilibrium, for simple one-to-one binding. Turning to “GUUCUGAUAUUUUGGGUAAUCGCUAUAUUAUAUAGAGGAAAGUCCAUGCUCACACAGUCUGAGAUGAUUGUAGUGUUCGUGCUUGAUGAAACAAUAAAUCAAGGCAUUAAUUUGACGGCAAUGAAAUAUCCUAAGUCUUUCGAUAUGGAUAGAGUAAUUUGAAAGUGCCACAGUGACGUAGCUUUUAUAGAAAUAUAAAAGGUGGAACGCGGUAAACCCCUCGAGUGAGCAAUCCAAAUUUGGUAGGAGCACUUGUUUAACGGAAUUCAACGUAUAAACGAGACACACUUCGCGAAAUGAAGUGGUGUACGACAGAUGGUUAUCACCUGAGUACCAGUGUGACUAGUGCACGUGAUGAGUACGAUGGAACAGAACAUGGCUUAUAGAAAUAUCACUACUA [S. aureus RNase P RNA (SP RNA)]”, the Kd stood at 8 nM (20 mM K-Hepes pH 8.0, 0.01% NP40, 400 mM NH4OAc, 10 mM MgCl2, 5% glycerol, at least three experiments); 20 nM (binding constant of the complex stated in summary, filter binding and gel shift, differs from 8 nM in p322).

The values above are taken from patent US20030191083.
